From patent US20120114652A1 (AbbVie / Abbott, published 2012)
Numbering of substitutions follows the chain as printed. Blank lines part the entries; values can stand above or below the binder they belong to.

How the values were obtained:
Test in all cases: cell-based or functional assay
rat PAI-1 [1] = molecular target: T1, rat PAI-1 (rat, UniProt P20961 24-402)
T1 sequence: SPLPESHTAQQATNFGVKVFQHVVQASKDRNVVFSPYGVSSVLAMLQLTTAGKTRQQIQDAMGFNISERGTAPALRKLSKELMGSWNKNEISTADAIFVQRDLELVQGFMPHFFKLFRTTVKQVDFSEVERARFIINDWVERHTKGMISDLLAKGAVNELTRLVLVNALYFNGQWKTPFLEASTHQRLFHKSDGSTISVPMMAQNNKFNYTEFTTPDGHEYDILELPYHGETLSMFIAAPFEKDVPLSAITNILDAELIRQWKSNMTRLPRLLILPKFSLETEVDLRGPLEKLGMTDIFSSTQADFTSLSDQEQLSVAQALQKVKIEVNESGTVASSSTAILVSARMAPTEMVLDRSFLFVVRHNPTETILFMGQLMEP

[2] = molecular target: T2, human PAI-1, active, wild-type, non-glycosylated (E. coli-derived) (human, UniProt P05121 24-402)
mouse PAI-1 [3] = molecular target: T3, mouse PAI-1 (mouse, UniProt P22777 24-401)
T3 sequence: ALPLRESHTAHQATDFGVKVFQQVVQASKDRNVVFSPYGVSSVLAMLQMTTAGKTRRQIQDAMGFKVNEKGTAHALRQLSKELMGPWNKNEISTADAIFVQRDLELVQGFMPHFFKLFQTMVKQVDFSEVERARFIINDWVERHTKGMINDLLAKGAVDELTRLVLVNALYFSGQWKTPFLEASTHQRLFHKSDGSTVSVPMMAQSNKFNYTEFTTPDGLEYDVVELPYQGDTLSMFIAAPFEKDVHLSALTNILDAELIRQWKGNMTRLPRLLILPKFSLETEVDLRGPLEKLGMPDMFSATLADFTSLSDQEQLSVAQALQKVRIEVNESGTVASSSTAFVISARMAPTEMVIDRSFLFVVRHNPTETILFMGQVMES

cynomolgus PAI-1 = cynomolgus PAI-1 (cynomolgus, UniProt P05121 24-402 (human entry), limits assumed)
rat PAI-1 [4] = molecular target: T1, rat PAI-1; remark: listed apart in the source
[5] = molecular target: T2, human PAI-1, active, wild-type, …; remark: listed apart in the source
mouse PAI-1 [6] = molecular target: T3, mouse PAI-1; remark: listed apart in the source

IC50 chromogenic (rat PAI-1 [1]): 59.5 nM | IC50 ratio rat/human (rat PAI-1 [1]): 0.6 | IC50 chromogenic [2]: 102 nM | IC50 chromogenic (mouse PAI-1 [3]): 33.6 nM | IC50 ratio mouse/human (mouse PAI-1 [3]): 0.3 | IC50 chromogenic (cynomolgus PAI-1): 43.8 nM | IC50 ratio cyno/human (cynomolgus PAI-1): 0.4
B1: Antibody 11, scFv (scFv, V domains shown)
VH: QVQLQQSGAEVKKPGSSVKVSCKASGGTFSSYAISWMRQAPGQGLEWMGGIIPIFGTANYAQKFQGRVTITADESTSTAYMELSGLRSEDTAVYYCAREKRQWLEGHFDYWGRGTPVTVSS
VL: DIQMIQSPSFLSASTGDRVTITCQASEGIYHELAWYQQKPGKAPKLLIYRASSLASGAPSRFSGSGSGTDFTLTISSLQPDDFATYYCQQYSNYPLTFGGGTKLEIK

IC50 chromogenic (rat PAI-1 [1]): 340 nM | IC50 ratio rat/human (rat PAI-1 [1]): 51.4 | IC50 chromogenic [2]: 6.6 nM | IC50 chromogenic (mouse PAI-1 [3]): 264 nM | IC50 ratio mouse/human (mouse PAI-1 [3]): 39.9 | IC50 chromogenic (cynomolgus PAI-1): 2.1 nM | IC50 ratio cyno/human (cynomolgus PAI-1): 0.3
B2: Antibody 04, scFv (scFv, V domains shown)
VH: B1 VH with Q3R, M37V, I54T, Q65R, D73N, H107R, P116L
VL: B1 VL with I5T, T15I, V19I, Q24R, E32S, Y49H, S52T, A58T, S63G, T72A

IC50 chromogenic (rat PAI-1 [1]): 24.9 nM | IC50 ratio rat/human (rat PAI-1 [1]): 0.3 | IC50 chromogenic [2]: 71.5 nM | IC50 chromogenic (mouse PAI-1 [3]): 26.2 nM | IC50 ratio mouse/human (mouse PAI-1 [3]): 0.4 | IC50 chromogenic (cynomolgus PAI-1): 41.5 nM | IC50 ratio cyno/human (cynomolgus PAI-1): 0.6
B3: Antibody 17, scFv (scFv, V domains shown)
VH: B1 VH with M37V, I54T
VL: B1 VL with I5T, T15I, Q24R

IC50 chromogenic (rat PAI-1 [1]): 245 nM | IC50 ratio rat/human (rat PAI-1 [1]): 61.4 | IC50 chromogenic [2]: 4 nM | IC50 chromogenic (mouse PAI-1 [3]): 211 nM | IC50 ratio mouse/human (mouse PAI-1 [3]): 52.9 | IC50 chromogenic (cynomolgus PAI-1): 1.2 nM | IC50 ratio cyno/human (cynomolgus PAI-1): 0.3
B4: Antibody 26, scFv (scFv, V domains shown)
VH: B1 VH with S16T, M37V, G85S
VL: B1 VL with I5T, T15I, Q24R, E32T

IC50 chromogenic (rat PAI-1 [1]): 406 nM | IC50 ratio rat/human (rat PAI-1 [1]): 81.2 | IC50 chromogenic [2]: 5 nM | IC50 chromogenic (mouse PAI-1 [3]): 413 nM | IC50 ratio mouse/human (mouse PAI-1 [3]): 82.6 | IC50 chromogenic (cynomolgus PAI-1): 1.5 nM | IC50 ratio cyno/human (cynomolgus PAI-1): 0.3
B5: Antibody 22, scFv (scFv, V domains shown)
VH: B1 VH with S31G, M37V, I54T, A61S
VL: B1 VL with I5T, P8L, T15I, Q24R, E32A

IC50 chromogenic (rat PAI-1 [1]): 91 nM | IC50 ratio rat/human (rat PAI-1 [1]): 0.5 | IC50 chromogenic [2]: 187 nM | IC50 chromogenic (mouse PAI-1 [3]): 143 nM | IC50 ratio mouse/human (mouse PAI-1 [3]): 0.8 | IC50 chromogenic (cynomolgus PAI-1): 117 nM | IC50 ratio cyno/human (cynomolgus PAI-1): 0.6
B6: Antibody 07, scFv (scFv, V domains shown)
VH: B1 VH with M37V, M48V, I54T
VL: B1 VL with I5A, T15I, Q24R

IC50 HT-1080 Exo PAI-1 (rat PAI-1 [4]): 52 nM | IC50 HT-1080 Exo PAI-1 [5]: 28 nM | IC50 HT-1080 Exo PAI-1 (mouse PAI-1 [6]): 22 nM | IC50 chromogenic (rat PAI-1 [1]): 23.1 nM | IC50 chromogenic (cynomolgus PAI-1): 0.8 nM
B7: Antibody 14, scFv (scFv, V domains shown)
VH: B1 VH with M37V, I54T, P116L
VL: B1 VL with I5T, T15I, Q24R, E32N, L73F

IC50 chromogenic (rat PAI-1 [1]): 37.1 nM | IC50 ratio rat/human (rat PAI-1 [1]): 0.5 | IC50 chromogenic [2]: 74.6 nM | IC50 chromogenic (mouse PAI-1 [3]): 48.2 nM | IC50 ratio mouse/human (mouse PAI-1 [3]): 0.6 | IC50 chromogenic (cynomolgus PAI-1): 31.6 nM | IC50 ratio cyno/human (cynomolgus PAI-1): 0.4
B8: Antibody 06, scFv (scFv, V domains shown)
VH: B1 VH with M37V, I54T
VL: B1 VL with I5T, T15I, Q24R, G100R

IC50 HT-1080 Exo PAI-1 [5]: 9.5 nM | IC50 chromogenic (mouse PAI-1 [3]): 12.9 nM | IC50 chromogenic (cynomolgus PAI-1): 0.5 nM
B9: Antibody 03, IgG4, not germlined (antibody, V domains shown)
VH: B1 VH with M37V, I54T
VL: B1 VL with I5T, T15I, Q24R, H31R, E32S, R50K, S77G

IC50 chromogenic (rat PAI-1 [1]): 376 nM | IC50 ratio rat/human (rat PAI-1 [1]): 229 | IC50 chromogenic [2]: 1.6 nM | IC50 chromogenic (mouse PAI-1 [3]): 376 nM | IC50 ratio mouse/human (mouse PAI-1 [3]): 229 | IC50 chromogenic (cynomolgus PAI-1): 0.5 nM | IC50 ratio cyno/human (cynomolgus PAI-1): 0.3
B10: Antibody 23, scFv (scFv, V domains shown)
VH: B1 VH with M37V, I54T, G66S
VL: B1 VL with I5T, T15I, Q24R, E32S
